{
  "source": "patent US4331762A",
  "about": "“Bacillus stearothermophilus strain UK 788 and process for producing a useful enzyme” (Unitika Ltd., priority 1980, dated 1982)",
  "proteins": {"B1": {"name": "heat-resistant glucose-6-phosphate dehydrogenase from Bacillus stearothermophilus UK 788 (FERM-P No. 5141) (Geobacillus stearothermophilus ATCC 12980) (protein)", "chain": "MDNMNPKSIIVIFGATGDLAKRKLFPSLYRLYEKGHLNEQFAVVGVARRPLSADEFRNYVRDSVETAFHQKLADGRFTSHFYYHPFDVTEAESYQRLKSLLEQLDGTYKTEGNRIFYLAMAPEFFGTVTSRLQSEGLTETHGFKRLVIEKPFGHDLASAEKLNDEIRRVFSEREIYRIDHYLGKEMVQNIKVIRFSNAIFEPLWNNRFIANIQITSSETLGVEDRGRYYDHSGALRDMVQNHMLQMVALLAMEPPIKLTTDDIRHEKVKVLRALRPIAHDEVDRYFVRGQYGRGVIHGKHVPAYREEPNVDPDSNTETFVAGKLLIDNFRWAGVPFYIRTGKRMAEKSTKIVVQFKDVPMNLYYRTNETIAPNLLVIHIQPDEGITLHLNGKKTGESTTITAPFQLDYCNNCIDGINTPEAYEKLLYDCMRGDATNFTHWDEVAASWQFVDPISEVWANTKASDFPNYAAGSMGPAAAGELLKKDGFHWWPIEHPRP"}},
  "experiment_in_all_cases": "purified protein, by the assay type",
  "key": {"[1]": {"substrate": "NC(=O)c1ccc[n+]([C@@H]2O[C@H](COP(=O)([O-])OP(=O)(O)OC[C@H]3O[C@@H](n4cnc5c(N)ncnc54)[C@H](OP(=O)(O)O)[C@@H]3O)[C@@H](O)[C@H]2O)c1", "conditions": "other: coenzyme NADP or NAD; pH 8.9"}, "[2]": {"substrate": "O=P(O)(O)OC[C@H]1OC(O)[C@H](O)[C@@H](O)[C@@H]1O", "conditions": "other: substrate glucose-6-phosphate; pH 8.9"}, "[3]": {"substrate": "NC(=O)c1ccc[n+]([C@@H]2O[C@H](COP(=O)([O-])OP(=O)(O)OC[C@H]3O[C@@H](n4cnc5c(N)ncnc54)[C@H](O)[C@@H]3O)[C@@H](O)[C@H]2O)c1", "conditions": "other: coenzyme NADP or NAD; pH 8.9", "source_text": "The activity required to increase the absorbance of 1 micromol of NADPH at 340 nm per minute was defined to be one unit."}},
  "data": [
    {"protein": "B1", "values": [
      {"measurement": "Km", "setting": "[1]", "value": 16, "unit": "µM"},
      {"measurement": "Km", "setting": "[2]", "value": 160, "unit": "µM"},
      {"measurement": "Km", "setting": "[3]", "value": 1640, "unit": "µM"}
    ]}
  ]
}
